Publication PMC7954794, “Protein context shapes the specificity of SH3 domain-mediated interactions in vivo” (Nature Communications, 2021)

B1: YML016C_2 (protein, UniProt P26570 2-692, looked up)
Serine/threonine-protein …: GNSSSKSSKKDSHSNSSSRNPRPQVSRTETSHSVKSAKSNKSSRSRRSLPSSSTTNTNSNVPDPSTPSKPNLEVNHQRHSSHTNRYHFPSSSHSHSNSQNELLTTPSSSSTKRPSTSRRSSYNTKAAADLPPSMIQMEPKSPILKTNNSSTHVSKHKSSYSSTYYENALTDDDNDDKDNDISHTKRFSRSSNSRPSSIRSGSVSRRKSDVTHEEPNNGSYSSNNQENYLVQALTRSNSHASSLHSRKSSFGSDGNTAYSTPLNSPGLSKLTDHSGEYFTSNSTSSLNHHSSRDIYPSKHISNDDDIENSSQLSNIHASMENVNDKNNNITDSKKDPNEEFNDIMQSSGNKNAPKKFKKPIDIDETIQKLLDAGYAAKRTKNVCLKNNEILQICIKAREIFLSQPSLLELSPPVKIVGDVHGQYGDLLRLFTKCGFPPSSNYLFLGDYVDRGKQSLETILLLFCYKIKYPENFFLLRGNHECANVTRVYGFYDECKRRCNIKIWKTFIDTFNTLPLAAIVAGKIFCVHGGLSPVLNSMDEIRHVVRPTDVPDFGLINDLLWSDPTDSPNEWEDNERGVSYCYNKVAINKFLNKFGFDLVCRAHMVVEDGYEFFNDRSLVTVFSAPNYCGEFDNWGAVMSVSEGLLCSFELLDPLDSAALKQVMKKGRQERKLANQQQQMMETSITNDNESQQ
B2: YIL095W_1 (protein, UniProt P40494 1-810, looked up)
Actin-regulating kinase PRK1: MNTPQISLYEPGTILTVGSHHAKIIKYLTSGGFAQVYTAEISPPDPYSNANIACLKRVIVPHKQGLNTLRAEVDAMKLLRNNKHVVSYIDSHAARSVNGIAYEVFVLMEFCERGGLIDFMNTRLQNRLQESEILEIMSQTVQGITAMHALQPPLIHRDIKIENVLISHDGLYKVCDFGSVSGVIRPPRNTQEFNYVQHDILTNTTAQYRSPEMIDLYRGLPIDEKSDIWALGVFLYKICYYTTPFEKSGEAGILHARYQYPSFPQYSDRLKNLIRLMLMEAPSQRPNICQVLEEVSRLQNKPCPIRNFYLLRAMNQNANTQLAGEPSSTTYVPTQKFIPVQSLQSINQPPNMMPVTHVSTTPNLGTFPISINDNNKTEVTAHAGLQVGSHSNLTSPLMKTKSVPLSDEFASLYYKELHPFQKSQTFKSVESFQSPQRKSMPPLSLTPVNNDIFDRVSAINRPNNYVDSETQTIDNMAVPNLKLSPTITSKSLSSTKEIAAPDNINGSKIVRSLSSKLKKVITGESRGNSPIKSRQNTGDSIRSAFGKLRHGFTGNSVNNSRSASFDNNNVNGNGNNTNRRLVSSSTSSFPKFNSDTKRKEESDKNQRLEKRRSMPPSILSDFDQHERNNSRTGSRDYYRSHSPVKKTQASAKTTSKPTLIPDNGNVNINQEKKESIQRRVHNLLKSSDDPVTYKSASGYGKYTDIGTETSNRHSSVRITPITEEKFKKTLKDGVLDIKTKSNGKDKSRPPRPPPKPLHLRTEIQKIRNFSRLQSKKLPIERISSEATETIVDVNVDDLEADFRKRFPSKV
B3: YLR166C_1 (protein, UniProt Q06245 1-871, looked up)
Exocyst complex component …: MNSLYELDPKWKKLLKTDNFLGGLTVNEFVQELSKDHRNDVLIDANTKNLPTNEKDQDAIREAIWKQLDPKPYIRTFESTLKELKNLNEETLNKRQYFSEQVATQEVIHSENVIKLSKDLHTTLLTFDKLDDRLTNVTQVVSPLGDKLETAIKKKQNYIQSVELIRRYNDFYSMGKSDIVEQLRLSKNWKLNLKSVKLMKNLLILSSKLETSSIPKTINTKLVIEKYSEMMENELLENFNSAYRENNFTKLNEIAIILNNFNGGVNVIQSFINQHDYFIDTKQIDLENEFENVFIKNVKFKEQLIDFENHSVIIETSMQNLINDVETVIKNESKIVKRVFEEKATHVIQLFIQRVFAQKIEPRFEVLLRNSLSISNLAYVRILHGLFTLFGKFTKSLIDYFQLLEIDDSNQILSTTLEQCFADLFSHYLYDRSKYFGIEKRSLEAILVDMTSKFTVNYDKEINKRVLLDKYKEKLSTNVDAFMHSPRGNTHSRQDSTSRSKLSQFNSFLKTHLDKDHLSLNRTNTLSDSFNNSSSSTQYDVANNSSSLVNSSFTASDIDNSPNSPANYSLNDVDSMLKCVVESTARVMELIPNKAHLYILEILKIMFLGIVDSYMEIALEVAYWKICKVDINKTAGVVNLNFLKFISMSTEILDLLSISIKSIFLPLLNNSPEIKAQIIEMTNSQIQKMEILINIILQETITVISTKFSAILCKQKKKDFVPKSQELLDQDTLPAIEIVNILNLIFEQSSKFLKGKNLQTFLTLIGEELYGLLLSHYSHFQVNSIGGVVVTKDIIGYQTAIEDWGVASLIDKFATLRELANLFTVQPELLESLTKEGHLADIGRDIIQSYISNREDFNHDNFINSVKLNFR
B4: YJL201W_1 (protein, UniProt P32525 1-599, looked up)
Protein ECM25: MIDINVNNIFFRSYSVDPNSGHAIYVFDSTYLPASDEIGDKQVYDLLINALMDRLVMKLPQAPYSLVIFSSGFSQRKISWVYGIKMFAKLPKETKFYLQKIFIVHESFFVRSVYQVISNAMNFNFLDSKDSQHDFPSLVHVLDLTSLSELIDITRLRISLNVYLYDYQIREHINVPEEYYNRLTPLAIRQYRQLVFDKIFKKLQNDALLCELIFQKPGNYKKVNIFLDIIKRNNYIDLSQWDIYSLASVWLNYFIKNKAKPLIPIELIPLPIVDDLKFTSETFRKIIKFNQYQDLFMVIIPFFNRIIAHGESTKHDSRTLSKALTPALCKEKLSMMTNDRLAIGSRYIKNLLDFFPEIAKEISSPPSSVSSSSTIPVLPKPRKSSPTRYSELGCLTLPRSRSPSPQRSVTSPTYTPVALQNTPVLKPKSSSRNVSSPSFNAKPPLPIKAVTRPQLSLTSNSNTDLALASSSTDTLSSPTKTPSADSLPLSNSSTDLTISDNIKEMVKDEPAKDKNSVETDIFVQQFESLTLVQNAKIKKFDKELQEKKKKNETTSKTADKFSQKGYSDIKASNKVSRLAALYEERLQGLQVMNEMKQRW
B5: YLR436C_1 (protein, UniProt Q06673 1-1274, looked up)
Protein ECM30: MGNTDSKSSSILLNHCIALVRPEDADASSPSRTSSPSPSLSVDADPLSLNLSIFKLDSGPDVEALFSDKPNVPLDTVFNDFYLDFISVDVQDFSINSSFKKILHIISSLNPPNFNNLIVFLSLYIILSANSLPASRTGLHSSRLINAIKTLSILIPIYFDRVKSSTQDHYDVFWATQHEIEGLPLQNIPLGERLLLAILKLAFQDNFTTAVTAHPSELWEIGILTNSNKYRSLLNMHHQWHLFANRLLLLRLLAALFSSDLYTSGGKQDINMFLVYWCTQMPKDKSIQFTSSLLNCTMRFILNNNKDFQSLKANFFSSDATASNWQTLYFQFVQSCLHVLNLSMSYKAQDNVITIFLTQLQREYDLKLILSSFIKIFKYPIDLAIEQESNIFNFTNNKHIDASRRRAVSTSSHDNSSSSHASLPSSSSAAYHTKPQTKPQLPEIHPLLIPMTILMTNLIDCNKCFQNYFADKFASRFIIFSIYYLKYYDYSSLSSSSSTTRSNSSTTSNGTSNDTSNERSIVELNENSVSQILLPLLNHLLLILTSKKLVLFKMLQTFNLNYYTNNLPNFYKLSNINGDINNLTFRDFTVIQLSNLILDNIKFNLQPNPIFYELIYNLLPINDEILTSSHKNDDSHDDLILLSAKKKSASPSAATSSHTSSSKLSYNAAMSLLYVLSKSSNKVYLTTYATPVFKTKDIPYMISPGFKMDLLALLLRSITIFFTLYFDDAENLLFAMVRHQSITHQINDSINSISKALDMNPNLNSHIMTLKQMGFNRKVQWKDFYQFEEITDLPQVNLYSSANQQHQNQQQGQNDNRGQNQNEDPGQENESPTPYLLFNPASLENETPGTVKHFSSTNHDKNYQVIAFIDFKSDSNLNLQHQLEYWPHRPQWPTPLTFTHKCKNPKYENFNEVWSGTVYLQILLRVIKQILSKVPEIPRIKSVQYFETLSKLSALRSDILTTIHPRLPLDVRRLTTFQPLSMHTNDKLLMWFHIATWANIFTQTSFKYEETFSHELRQFESLLDISIDECEGNTISKPTTDRLGYIRRSRGQSSVSLERTISAGSGVSTPTMALNRTKSNGSGNLMNYFFQNTAQNHFQHLRSSSSSSSITLEKTTSNSSSIRTRPNSHHVAPETNNNNSTNGNSNNSSNGGFSFFKWKWGGNNSNGGSDDTKASQRDPNVSTSIITDNLNSYMFEEEISPGVVNNIIENNIWVGTDIRLFKIANFRKESFSFLEMTSSFFKKFKFINSDNDNYNNNEFDDNTQLRYTSRGLYR

Test system: PPIs identified as affected by the SH3 domain deletions
Assay: Liquid DHFR-PCA low-throughput validation of PPIs affected by SH3 deletion (Fig. S1D-E)
Assay type: cell-based, Saccharomyces cerevisiae
Settings: label = prey, liquid DHFR-PCA, prey _1 = lost, _2 = gained in screen
Method in brief: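 Growth at 30 °C was tracked by OD each 15 min over 72 h in agar-free PCA selection medium, starting at 0.1 OD. Cells were diploids selected after mating, first cultured 48 h with NAT and HPH in synthetic complete MSG medium, pH 6.0.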

| Molecule | Ratio (Deletedscore / WTscore) (bait ABP1) | Ratio (Deletedscore / WTscore) (bait BOI1) | Ratio (Deletedscore / WTscore) (bait BZZ1-2) | Ratio (Deletedscore / WTscore) (bait LSB3) |
| --- | --- | --- | --- | --- |
| B1 | 1.259 | 1.203 | 1.516 |  |
| B2 |  |  |  | 0.5323 |
| B3 |  |  |  | 0.4618 |
| B4 |  |  |  | 0.8948 |
| B5 |  |  |  | 0.9725 |
